Test [1] deals with HLA-B*57:01. Nature of the test: IEDB peptide-MHC binding, purified MHC/competitive/radioactivity; filed as Kd, often an IC50 or EC50 that approximates it; ≥ and ≤ were set here for values at or beyond the usual limits of such assays.
Test [2] has as its target HLA-A*68:02. The test is described as above. The settings on record: source organism: Dengue virus 2 Jamaica/1409/1983.
In test [3] the target is HLA-A*24:02. Briefly: IEDB peptide-MHC binding, purified MHC/competitive/fluorescence; ≥ and ≤ were set here for values at or beyond the usual limits of such assays. As to conditions: source organism: Sudan ebolavirus.
Test [4] concerns the target HLA-A*02:03. Nature of the test: IEDB peptide-MHC binding, purified MHC/direct/fluorescence; filed as Kd, often an IC50 or EC50 that approximates it; ≥ and ≤ were set here for values at or beyond the usual limits of such assays.
The target in test [5] is HLA-A*02:11. The test is described as above.
Test [6] concerns the target HLA-A*02:12. The description is as above.
Test [7] deals with HLA-A*02:16. The test is described as above.
For test [8], the target named is HLA-A*02:19. The description is as above.
In test [9] the target is HLA-A*03:01. The test is described as above.
The target in test [10] is HLA-A*29:02. The description is as above.
Test [11] concerns the target HLA-A*68:02. Described as above.
Test [12] addresses HLA-B*58:01. Described as above. As to conditions: source organism: Ebola virus - Eckron (Zaire, 1976).
The target in test [13] is HLA-A*02:01. Briefly: IEDB peptide-MHC binding, purified MHC/competitive/fluorescence; filed as Kd, often an IC50 or EC50 that approximates it; ≥ and ≤ were set here for values at or beyond the usual limits of such assays.
The target in test [14] is HLA-A*26:01. The test is described as above. As to conditions: source organism: Zaire ebolavirus.
The target in test [15] is HLA-A*69:01. The test is described as above.
For test [16], the target named is HLA-B*18:01. The description is as above.
The target in test [17] is HLA-B*27:03. The description is as above.
Test [18] has as its target HLA-B*39:01. The description is as above.
Test [19] has as its target HLA-B*46:01. Described as above. The settings on record: source organism: Zaire ebolavirus.
Test [20] deals with HLA-A*32:01. Briefly: IEDB peptide-MHC binding, purified MHC/competitive/radioactivity; filed as Kd, often an IC50 or EC50 that approximates it; ≥ and ≤ were set here for values at or beyond the usual limits of such assays.
Test [21] concerns the target HLA-A*02:06. The description is as above. The settings on record: source organism: Dengue virus 3 Singapore/8120/1995.
Test [22] addresses HLA-A*23:01. The test is described as above. The settings on record: source organism: Dengue virus 3 Singapore/8120/1995.
Test [23] has as its target HLA-A*24:02. Described as above. The settings on record: source organism: Dengue virus 3 Singapore/8120/1995.
For test [24], the target named is HLA-A*26:01. The test is described as above. The settings on record: source organism: Dengue virus 3 Singapore/8120/1995.
Test [25] deals with HLA-B*35:01. Described as above. As to conditions: source organism: Dengue virus 3 Singapore/8120/1995.
The target of test [26] is HLA-B*58:01. The description is as above.
The target in test [27] is HLA-B*51:01. Briefly: IEDB peptide-MHC binding, purified MHC/direct/fluorescence; filed as Kd, often an IC50 or EC50 that approximates it; ≥ and ≤ were set here for values at or beyond the usual limits of such assays.
In test [28] the target is HLA-C*15:02. Described as above. The settings on record: source organism: West Nile virus.
Test [29] concerns the target HLA-A*26:01. The description is as above. As to conditions: source organism: Orthohantavirus moroense.
The target of test [30] is HLA-B*15:01. Described as above.
Test [31] has as its target HLA-B*08:01. Nature of the test: IEDB peptide-MHC binding, purified MHC/competitive/radioactivity; filed as Kd, often an IC50 or EC50 that approximates it; ≥ and ≤ were set here for values at or beyond the usual limits of such assays. As to conditions: source organism: Dengue virus 4 Philippines/H241/1956.
In test [32] the target is HLA-B*51:01. The test is described as above. The settings on record: source organism: Dengue virus 4 Philippines/H241/1956.
The target in test [33] is HLA-B*53:01. The description is as above. The settings on record: source organism: Dengue virus 4 Philippines/H241/1956.
In test [34] the target is HLA-A*24:03. Briefly: IEDB peptide-MHC binding, purified MHC/direct/fluorescence; filed as Kd, often an IC50 or EC50 that approximates it; ≥ and ≤ were set here for values at or beyond the usual limits of such assays. The settings on record: source organism: Zaire ebolavirus.
The target in test [35] is HLA-B*15:01. Nature of the test: IEDB peptide-MHC binding, purified MHC/competitive/fluorescence; filed as Kd, often an IC50 or EC50 that approximates it; ≥ and ≤ were set here for values at or beyond the usual limits of such assays. As to conditions: source organism: Zaire ebolavirus.
The target in test [36] is HLA-B*15:17. The description is as above. The settings on record: source organism: Zaire ebolavirus.
Test [37] addresses HLA-B*51:01. The description is as above. As to conditions: source organism: Zaire ebolavirus.
The target in test [38] is HLA-B*57:01. The description is as above. The settings on record: source organism: Zaire ebolavirus.
The target in test [39] is HLA-B*07:02. Briefly: IEDB peptide-MHC binding, purified MHC/direct/fluorescence; filed as Kd, often an IC50 or EC50 that approximates it; ≥ and ≤ were set here for values at or beyond the usual limits of such assays. As to conditions: source organism: Vibrio parahaemolyticus.
[40] abbreviates: source organism: Dengue virus 2 Jamaica/1409/1983.
Where [41] appears, read: source organism: Zaire ebolavirus.
The mark [42] stands for this setting: source organism: Dengue virus 4 Philippines/H241/1956.
Setting [43] is: source organism: Dengue virus 3 Singapore/8120/1995.
Setting [44] is: source organism: West Nile virus.
[45] abbreviates: source organism: Limestone Canyon virus.
Setting [46] is: source organism: Orthohantavirus puumalaense.
Setting [47] is: source organism: Ebola virus Yambio0403.

Broadly, the Kd is the constant that tells how readily two partners part at equilibrium. With KTSIGLLCVM, the dissociation constant (Kd) in test [1] (source organism: Dengue virus 1 Singapore/S275/1990) was 11.4 nM.

With ESSPNPTIEA, the dissociation constant (Kd) came out at 52.3 nM in test [2] and 2090 nM in test [1] (setting [40]).

What is called IC50 is the concentration that gives 50% inhibition. As to KCNPNLHYW, in test [3], the IC50 was 376 nM. Besides, the Kd in test [4] (setting [41]), in test [5] (setting [41]), in [6] (setting [41]), in test [7] (setting [41]), in test [8] (setting [41]) and in [9] (setting [41]) was not below 20000 nM in each case. Moreover, the Kd in test [10] (setting [41]) was not below 20000 nM; in test [11] (setting [41]), not below 20000 nM; in test [12], 2600 nM; in test [13] (setting [41]), not below 20000 nM; in test [14], not below 20000 nM; in test [15] (setting [41]), not below 20000 nM. Besides, the dissociation constant (Kd) in [16] (setting [41]), in test [17] (setting [41]), in [18] (setting [41]) and in test [19] was not below 20000 nM each time.

KTWGKAKIF: the Kd amounted to 60.3 nM in test [20] (setting [42]) and 36.3 nM in test [1] (setting [42]).

For MIAGVLFTF, the Kd in test [21] came out at 22.5 nM; in test [22] it was 26 nM; in test [23], 50.4 nM; in test [24], 1230 nM; in [20] (setting [43]), 1.88 nM; in test [25], 4.73 nM. Also, the equilibrium dissociation constant (Kd) in test [26] (setting [43]) was found to be 20.2 nM.

Consider HTWTEQYKF, for which the dissociation constant (Kd) is 151 nM in test [20] (setting [40]) and 2.37 nM in test [1] (setting [40]).

RPAADGKTV had a Kd in test [27] (setting [44]) not below 20000 nM.

Take GGRAHRMAL: the Kd in test [27] (setting [44]) and in test [28] was not below 20000 nM throughout.

With ATKDSFQSF, the Kd in [4] (setting [45]), in [5] (setting [45]), in test [6] (setting [45]), in test [7] (setting [45]), in [8] (setting [45]) and in test [9] (setting [45]) was not below 20000 nM in each case. Besides, the equilibrium dissociation constant (Kd) in [29] is 556 nM; in [11] (setting [45]), not below 20000 nM; in test [30] (source organism: Orthohantavirus moroense) it was 372 nM; in test [13] (setting [46]), not below 20000 nM; in test [15] (setting [46]), not below 20000 nM; in [16] (setting [46]), not below 20000 nM. The Kd in test [17] (setting [46]) and in test [18] (setting [46]) was not below 20000 nM each time.

Take MAMTTVLSI: the Kd in test [31] worked out at 16.3 nM; in [32] it was 36.3 nM; in [33] it was 2.34 nM; in [26] (setting [42]), 18.9 nM.

With ERSWNTGFDW, the dissociation constant Kd in test [26] (setting [42]) was determined as 683 nM.

Take SWHHTSDDF: the Kd in test [4] (setting [47]), in [5] (setting [47]), in test [6] (setting [47]), in test [7] (setting [47]), in [8] (setting [47]) and in test [9] (setting [47]) was not below 20000 nM each time. For the same sequence, the Kd in test [34] was 18.7 nM; in [10] (setting [47]), not below 20000 nM; in test [11] (setting [47]) it was not below 20000 nM; in test [13] (setting [41]) it was not below 20000 nM; in test [14], not below 20000 nM; in test [15] (setting [41]), not below 20000 nM. The Kd in test [35], in [36], in test [16] (setting [41]), in [17] (setting [41]), in [18] (setting [41]) and in test [19] was not below 20000 nM in each case. In addition, the Kd in [37] and in test [38] was not below 20000 nM each time.

For SAIVLEFFMM, the Kd in [26] (source organism: Dengue virus 3 Martinique/1243/1999) is 198 nM.

For the sequence WMADVPLQW, the Kd in test [26] (setting [43]) is 0.528 nM.

Regarding EPATQTFDM, the Kd in [39] was 122 nM; in test [30] (source organism: Vibrio parahaemolyticus RIMD 2210633) it was not below 20000 nM; in test [27] (source organism: Vibrio parahaemolyticus), not below 20000 nM.
